Results published in PMC2783756 (Biochemistry, 2009).

Columns and labels:
DNA = settings: previously observed for N-terminal construct; ref [6]; cited from earlier work
NKX3.1 homeodomain = test: CD thermal unfolding of NKX3.1 constructs; assay type: physicochemical; settings: with and without His tag sequence; within error (±1 °C)
[1] = tested on: medium-chain acyl-CoA dehydrogenase; settings: activity drops significantly for changes in temperature as small as 3 °C; ref [21]; cited from earlier work

B1: 1–184: NKX3.1 (1–184) construct, recombinant with N-terminal hexahistidine sequence (protein, UniProt Q99801 1-184, looked up, fragment)
chain: MLRVPEPRPGEAKAEGAAPPTPSKPLTSFLIQDILRDGAQRQGGRTSSQRQRDPEPEPEPEPEGGRSRAGAQNDQLSTGPRAAPEEAETLAETEPERHLGSYLLDSENTSGALPRLPQTPKQPQKRSRAAFSHTQVIELERKFSHQKYLSAPERAHLAKNLKLTETQVKIWFQNRRYKTKRKQL
modifications: N-terminal His6 tag
- DNA binding (DNA): weaker DNA binding

B2: 114–184: NKX3.1 homeodomain construct, recombinant with N-terminal hexahistidine sequence (protein, UniProt Q99801 114-184, looked up, fragment)
chain: PRLPQTPKQPQKRSRAAFSHTQVIELERKFSHQKYLSAPERAHLAKNLKLTETQVKIWFQNRRYKTKRKQL
modifications: N-terminal His6 tag
- Effect of His tag on unfolding transition temperature (NKX3.1 homeodomain): the same unfolding transition temperature within error

B3: Y42H allele of human medium-chain acyl-CoA dehydrogenase: Y42H allele of human medium-chain acyl-CoA dehydrogenase (protein, UniProt P11310 26-421, looked up, variant Y42H)
Medium-chain specific …: KANRQREPGLGFSFEFTEQQKEFQATARKFAREEIIPVAAEHDKTGEYPVPLIRRAWELGLMNTHIPENCGGLGLGTFDACLISEELAYGCTGVQTAIEGNSLGQMPIIIAGNDQQKKKYLGRMTEEPLMCAYCVTEPGAGSDVAGIKTKAEKKGDEYIINGQKMWITNGGKANWYFLLARSDPDPKAPANKAFTGFIVEADTPGIQIGRKELNMGQRCSDTRGIVFEDVKVPKENVLIGDGAGFKVAMGAFDKTRPVVAAGAVGLAQRALDEATKYALERKTFGKLLVEHQAISFMLAEMAMKVELARMSYQRAAWEVDSGRRNTYYASIAKAFAGDIANQLATDAVQILGGNGFNTEYPVEKLMRDAKIYQIYEGTSQIQRLIVAREHIDKYKN
- Thermal stability and activity [1]: lower thermal stability
